Experimental data as given in the supplement of paper PMC9170038.

System: MS2 coat protein
Experiment: apparent KD of MS2 coat protein; designed switch direction (-1 OFF switch, 1 ON switch): -1; higher = weaker reporter binding
Method in brief: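 Designed RNA switches with common flanks were transcribed on Illumina chips by stalled E. coli RNA polymerase and titrated with SNAP-549-labelled MS2 coat protein, from 0.7 or 1.5 nM doubling to 3 µM, in Tris-HCl pH 7.5 buffer with KCl, MgCl2, BSA, DTT, tRNA and Tween-20. Steps lasted 0.8–1.5 h (lowest) to 10–20 min (highest). Titrations ran without input, with 200 uM small-molecule ligand, or with an oligonucleotide input. Normalised cluster fluorescence was curve-fitted, and apparent KD is the per-design median over clusters.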

[1] = input ligand: microRNA oligo, concentration not stated
[2] = Eterna round: R95, input ligand: microRNA oligo, concentration not stated

Sequence	apparent KD of MS2 coat protein (input ligand: FMN 200 uM) [nM]	apparent KD of MS2 coat protein [1] [nM]	apparent KD of MS2 coat protein (input ligand: none) [nM]	apparent KD of MS2 coat protein [2] [nM]	other results
CAUGUCCAACGAGGAUAUGGGAAAGGAAGUGUACCAGAAGGCGUACGGACAUGAGGAUCACCCAUGUCGCGCGGCGCGAUGUGG [PowerStrip EXNG 1.1] (Eterna round: R96, puzzle: Exclusion NG 1)	47.6	28.3	41.5	–	–
CAUUAUUAUCGAGGAUAUCCUAUUGAAAUUCUAGGAGAAGGCGGACUCAACAUGAGGAUCACCCAUGUGGGACGGAUGCUAGGG [Ex NG1 #29] (Eterna round: R96, puzzle: Exclusion NG 1)	15.9	19.6	17.8	–	–
CAUUAUUAUCGAGGAUAUCCUAUUGAAAUUCUGGGAGAAGGCGGACUCAACAUGAGGAUCACCCAUGUGAGACGGAUGCUAGGG [Ex NG1 #27] (Eterna round: R96, puzzle: Exclusion NG 1)	–	15	–	–	–
CCAACAAGCUUUUUGCUCGACAUGAGGAUCACCCAUGUAAAAUGGGUAAAUUUAAAUUUAAAUUUAUUUAAAUUUGG [-16.3, -42.5 kcal, A 35%] (Eterna round: R97, puzzle: Sensor, turn-off variant 1)	505	–	728	–	–
CCAAGAAUAGGAUAUACACCAUGUCAGCUUAUAUACAACGCACAUGAGGAUCACCCAUGUAGAAGGGUUCUCUC [Exclusion-2-#2] (Eterna round: R97, puzzle: Exclusion 2)	571	–	823	–	–
CCAAGCUGUGUGAGGAUAUGCUGGUCCUUGGAUCAGCAGAAGGCACAUGAGGAUCACCCAUGUGAAAAGCUUGG [Mat - Exclusion 4 - JL Mod - D92] (puzzle: Brourd's mod of Exclusion 4)	–	–	–	13.8	–
CCACUGUCAGGAUAUCGUGCAUAACGUUUACAAUUUAUGUGCGAGAAGGGACAUGAGGAUCACCCAUGUAAACG [Omei Ex4 A28PK3] (Eterna round: R97, puzzle: Exclusion 4)	227	–	203	–	–
CCAGAGUGAGGAUAUGCAUAAAGGUGCUGUCCCGUGGCUUGACAUGAGGAUCACCCAUGUAGAAGGUGCGUUGU [Raonra] (Eterna round: R96, puzzle: Exclusion 2)	51.6	35.6	54.4	–	–
CCAGAGUGAGGAUAUGCAUAAAGGUGCUGUCCCGUGGCUUGACAUGAGGAUCACCCAUGUAGAAGGUGCGUUGU [Raonra] (puzzle: Exclusion 2)	–	–	–	38.7	–
CCAGGCGUCUUGGCUCGUCUUAUUUGGAGAGGAUUGAUAACAUGAGGAUCACCCAUGUGUGUGGGAGCGUUGCAGUG [JR_SV3TOV2_Sub019] (puzzle: Sensor v3, turn-off variant 2)	–	–	–	137	apparent KD of MS2 coat protein (Eterna round: R95, input ligand: FMN 200 uM): 75.5 nM; apparent KD of MS2 coat protein (Eterna round: R95, input ligand: none): 102 nM
CCAUCGUGUGUGAGGAUAUGCUGGACCUUGGUUCAGCAGAAGGCACAUGAGGAUCACCCAUGUGAAUACGGUGG [Mat - Exclusion 4 - JL Mod - D90] (puzzle: Brourd's mod of Exclusion 4)	–	–	–	16.1	–
CCAUGCAGUGUGAGGAUAUGCUGGUCCUUGGAUCAGCAGAAGGCACAUGAGGAUCACCCAUGUGAAUAGCGUGG [Mat - Exclusion 4 - JL Mod - D84] (puzzle: Brourd's mod of Exclusion 4)	–	–	–	36.6	–
CCAUGUUAGCAGGAUAUGCAAUUAUUCUUUUAAGCAGAAGGGCUUACAUGAGGAUCACCCAUGUAACAUUUCAU [JR_E6_Sub081] (puzzle: Exclusion 6)	–	–	–	17.3	–
CCAUGUUAGCAGGAUAUGCAAUUAUUCUUUUACGCAGAAGGGCUUACAUGAGGAUCACCCAUGUAACAUUUCAU [JR_E6_Sub082] (puzzle: Exclusion 6)	–	–	–	17.2	–
CCCAGUUAUUCAGGAUAUUGUACAUGAGGAUCACCCAUGUAAUAAAUGAGGAUUUCGGGUGUCUACAAGAAGGGAAGGAUAGGC [Ostracism 19 - Jieux - Exclusion NG 2] (Eterna round: R96, puzzle: Exclusion NG 2)	26.5	23.8	29.3	–	–
CCCAUGUCAGGAUAUUAAUUGAGCAGGAAGCCCUGUUCACUUGAGAAGGGACAUGAGGAUCACCCAUGUAAAAC [Aesvea] (Eterna round: R97, puzzle: Exclusion 4)	30.1	–	384	–	–
CCCGCAGGCUUUUUGCUCGACAUGAGGAUCACCCAUGUUGAAUGGGUUGUGUGUGUGUGAUACAUAUAUAUGGUCCU [-26.2, -50.8 kcal, A 19%] (Eterna round: R97, puzzle: Sensor, turn-off variant 1)	242	–	349	–	–
CCCGGGCUUGUGAGGAUAUGCGCGCGGAAAUGUGUGUAGAAGGCACAUGAGGAUCACCCAUGUAAGGGCCCGGG [-32.4, -30.4 kcal, A 23%, 6-0] (Eterna round: R97, puzzle: Brourd's mod of Exclusion 4)	19.3	–	148	–	–
CCCGGGUCAGGAUAUGGGCCCGGGCCCGAAAGGGCCCGGGCCCAGAAGGGACAUGAGGAUCACCCAUGUCCGGG [-53.1, -50.9 kcal, 20% A] (Eterna round: R97, puzzle: Exclusion 4)	26.7	–	24.3	–	–
CCCGGGUUUGUAGGAUAUGCCCGCCUUUGGCGGGCAGAAGGACAUGAGGAUCACCCAUGUUGUAUAAACUUGGGAUGUUCCUCG [random4] (Eterna round: R96, puzzle: Exclusion NG 1)	30.8	31.3	40.7	–	–
CCCGUCGAUGUAGGAUAUGCCCGGGUCUCCCGGGCAGAAGGACAUGAGGAUCACCCAUGUUCGUGAGGAUCACCCAUGAAUGGG [Double but mutated MS2] (Eterna round: R96, puzzle: Exclusion NG 1)	15	13	19.4	–	–
CCCGUGUAAGGAUAUCGUUCACUUGGCGAAAGUCGAGUGGACGAGAAGGUACAUGAGGAUCACCCAUGUACGGG [-36.1, -35.7 kcal, A 27%] (Eterna round: R97, puzzle: Exclusion 4)	438	–	305	–	–
CCCUAGUAUGUAGGAUAUCGGUCAGUUUCUGAUCGAGAAGGACAUGAGGAUCACCCAUGUAAAACGUCCGGUUUCUGGAUAGGG [JL ENG1 3.56] (Eterna round: R96, puzzle: Exclusion NG 1)	73.2	17	24.6	–	–
CCCUCACAUGAGGAUCACCCAUGUCAGGAUAUCUCACAUCGGCCUUAGGCCAAUGUCAAGAGAAGGGACGUAUC [Usanvequin] (puzzle: Exclusion 1)	–	–	–	21.7	–
CCGAAUAUGCAGGAUAUCGUAUCGGAAACGAUACGAGAAGGGUAAACAUGAGGAUCACCCAUGUUCCUUAACGG [Fiskers Ex 6 - 18] (puzzle: Exclusion 6)	–	–	–	17.7	–
CCGAUAAUGUAGGAUAUCGUAUCGGAAACGAUACGAGAAGGGCAAACAUGAGGAUCACCCAUGUUCCUUAACGG [Mat - Exclusion 6 - Eli Mod - D72] (puzzle: Exclusion 6)	–	–	–	15.8	–
